Assay results published in article PMC7118133, “Dual functions of Aire CARD multimerization in the transcriptional regulation of T cell tolerance” (Nature Communications, 2020).
Substitutions are numbered along the chain they refer to. Names may count otherwise.

What was measured:
[1] = biological target: the molecule itself; assay: negative-stain electron microscopy; filament formation of purified mAire CARD variants after cleavage of the NusA tag with HRV 3C (4 °C, 16 h); diluted in TNE buffer (100 mM Tris pH 8, 50 mM NaCl, 10 mM EDTA) to ~50–200 µg/ml, uranyl formate stain; WT in Fig. 1b also denatured and refolded
[2] = biological target: the molecule itself; assay: negative-stain electron microscopy; filament formation of purified hAire CARD variants refolded from 6 M GdHCl by dialysis (20 mM HEPES pH 7.5, 1 M KCl, 5 mM βME, 16 h, 4 °C) and kept at 4 °C for another 24 h; diluted in TNE buffer to ~50–200 µg/ml, uranyl formate stain

B1: mouse Aire (mAire) CARD, wild type (domain or fragment, UniProt Q9Z0E3 1-105, looked up)
chain: MAGGDGMLRRLLRLHRTEIAVAIDSAFPLLHALADHDVVPEDKFQETLRLKEKEGCPQAFHALLSWLLTRDSGAILDFWRILFKDYNLERYSRLHSILDGFPKDV
notes: Autoimmune Regulator (Aire), mouse, CARD, aa 1-105, subcloned into pET50; Forms filaments after the NusA tag is cleaved off at the 3C site; also called WT mAire CARD; source: E. coli BL21(DE3), co-expressed with GroEL/ES + trigger factor, purified (Ni-NTA); tag cleaved with HRV 3C protease; not shown: His6-NusA-His6, N-terminal, cleaved
B1: binds [1].

B2: mouse Aire (mAire) CARD K51A/E52A (domain or fragment, UniProt Q9Z0E3 1-105, looked up)
chain: B1 chain with K51A, E52A
notes: Autoimmune Regulator (Aire), mouse, CARD, aa 1-105, subcloned into pET50; source: E. coli BL21(DE3), co-expressed with GroEL/ES + trigger factor, purified (Ni-NTA; tag cleaved with HRV 3C protease); not shown: His6-NusA-His6, N-terminal, cleaved
B2: binds [1].

B3: mouse Aire (mAire) CARD K53A/E54A (domain or fragment, UniProt Q9Z0E3 1-105, looked up)
chain: B1 chain with K53A, E54A
notes: as for B2
B3: binds [1].

B4: mouse Aire (mAire) CARD R70A/D71A (domain or fragment, UniProt Q9Z0E3 1-105, looked up)
chain: B1 chain with R70A, D71A
notes: Autoimmune Regulator (Aire), mouse, CARD, aa 1-105, subcloned into pET50; The results print R70A/D71A, the methods R70A/R71A; also called R70A/R71A (so printed in the methods); source: E. coli BL21(DE3), co-expressed with GroEL/ES + trigger factor, induced at 25 °C for 4 h, purified (Ni-NTA; tag cleaved with HRV 3C protease); not shown: His6-NusA-His6, N-terminal, cleaved
B4: binds [1].

B5: human Aire (hAire) CARD, wild type (domain or fragment, UniProt O43918 1-106, looked up)
chain: MATDAALRRLLRLHRTEIAVAVDSAFPLLHALADHDVVPEDKFQETLHLKEKEGCPQAFHALLSWLLTQDSTAILDFWRVLFKDYNLERYGRLQPILDSFPKDVDL
notes: Autoimmune Regulator (Aire), human, CARD, aa 1-106, subcloned into pET47; Construct His6-3C-hAire CARD; also called WT hAire CARD
B5: binds [2].
